The record followed here is publication PMC7247549, “Biochemical Convergence of Mitochondrial Hsp70 System Specialized in Iron–Sulfur Cluster Biogenesis” (International Journal of Molecular Sciences, 2020).

For data set [1], the target named is Isu1-GST fusion protein (S. cerevisiae) (UniProt Q03020). As to the kind of experiment: pull-down; Isu1-GST (30 μM) incubated with increasing Ssq1, 4 mM ADP, PD buffer (40 mM HEPES-KOH pH 7.5, 100 mM KCl, 1 mM DTT, 10 mM MgCl2, 5% glycerol), 15 min at 25 °C, then glutathione resin; SDS-PAGE, Coomassie, densitometry, Michaelis-Menten hyperbolic fit.
Data set [2] has as its target T1, Ssq1 (S. cerevisiae).
T1 sequence (Q05931 whole entry, looked up): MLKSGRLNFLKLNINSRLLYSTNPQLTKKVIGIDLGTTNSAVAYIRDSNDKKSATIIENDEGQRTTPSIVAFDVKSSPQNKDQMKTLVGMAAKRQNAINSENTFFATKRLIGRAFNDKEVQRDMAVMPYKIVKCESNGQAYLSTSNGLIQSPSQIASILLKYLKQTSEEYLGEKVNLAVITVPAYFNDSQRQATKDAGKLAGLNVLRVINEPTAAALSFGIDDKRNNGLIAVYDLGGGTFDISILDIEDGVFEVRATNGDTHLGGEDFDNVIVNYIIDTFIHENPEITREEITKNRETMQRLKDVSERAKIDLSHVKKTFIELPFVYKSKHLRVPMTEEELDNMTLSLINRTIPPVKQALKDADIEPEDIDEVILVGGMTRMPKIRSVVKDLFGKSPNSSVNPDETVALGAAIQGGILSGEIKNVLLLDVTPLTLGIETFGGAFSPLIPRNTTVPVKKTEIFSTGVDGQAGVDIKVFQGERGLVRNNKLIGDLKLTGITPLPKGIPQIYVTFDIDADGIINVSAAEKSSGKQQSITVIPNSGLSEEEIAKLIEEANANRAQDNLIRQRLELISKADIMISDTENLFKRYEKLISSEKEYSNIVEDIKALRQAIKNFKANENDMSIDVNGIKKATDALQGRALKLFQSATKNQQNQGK
Particulars: scale: fold.

Data set [3] has as its target T1, Ssq1 (S. cerevisiae).
Substrate in data set [4]: Nc1ncnc2c1ncn2[C@@H]1O[C@H](COP(=O)(O)OP(=O)(O)OP(=O)(O)O)[C@@H](O)[C@H]1O
Nature of the data set: steady-state ATPase, PK/LDH NADH-coupled assay. Conditions: 2.5 μM Ssq1 with 2.5 μM nucleotide exchange factor Mge1, no Isu1 or Hsc20 mentioned, pH 7.5, 150 mM KCl, 20 mM Mg acetate, 23 °C. The class given is biochemical, Saccharomyces cerevisiae.

Substrate in the data set “purified protein”: Nc1ncnc2c1ncn2[C@@H]1O[C@H](COP(=O)(O)OP(=O)(O)OP(=O)(O)O)[C@@H](O)[C@H]1O
Nature of the data set: purified protein. Particulars: 1 μM HscA, no exchange factor, no IscU or HscB mentioned, pH 7.5, 150 mM KCl, 20 mM Mg acetate, 23 °C.

Sequence of Isu1-GST fusion protein (S. cerevisiae) (Q03020 28-165): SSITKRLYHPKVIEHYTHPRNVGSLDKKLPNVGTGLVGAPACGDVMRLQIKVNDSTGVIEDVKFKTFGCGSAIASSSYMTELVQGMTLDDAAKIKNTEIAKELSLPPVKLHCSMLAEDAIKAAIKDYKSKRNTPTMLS

For the molecule Ssq1 (natural protein), in data set [1], the Km (with ADP) is 2.18 µM.

B1: Hsc20 (natural protein)
chain: TSTFYELFPKTFPKKLPIWTIDQSRLRKEYRQLQAQHHPDMAQQGSEQSSTLNQAYHTLKDPLRRSQYMLKLLRNIDLTQEQTSNEVTTSDPQLLLKVLDIHDELSQMDDEAGVKLLEKQNKERIQDIEAQLGQCYNDKDYAAAVKLTVELKYWYNLAKAFKDWAPGKQLEMNH
For the molecule B1, the apparent Km of Hsc20 (0.0025-0.25 μM) for stimulating the pull-down of Ssq1 with Isu1-GST in ATP, compared with that of HscB in the data set with Ssq1 (S. cerevisiae) [2] stood at 4. Besides, the apparent Km of Hsc20 for stimulation of Ssq1 ATPase activity (radioactive assay, 10 μM Isu1, 0.5 μM Mge1), compared with that of HscB for HscA (fold (affinity, against HscA for HscB)) with Ssq1 (S. cerevisiae) [3] turned out to be 8.

B2: Ssq1 (Saccharomyces cerevisiae S288C) (protein)
chain: PQLTKKVIGIDLGTTNSAVAYIRDSNDKKSATIIENDEGQRTTPSIVAFDVKSSPQNKDQMKTLVGMAAKRQNAINSENTFFATKRLIGRAFNDKEVQRDMAVMPYKIVKCESNGQAYLSTSNGLIQSPSQIASILLKYLKQTSEEYLGEKVNLAVITVPAYFNDSQRQATKDAGKLAGLNVLRVINEPTAAALSFGIDDKRNNGLIAVYDLGGGTFDISILDIEDGVFEVRATNGDTHLGGEDFDNVIVNYIIDTFIHENPEITREEITKNRETMQRLKDVSERAKIDLSHVKKTFIELPFVYKSKHLRVPMTEEELDNMTLSLINRTIPPVKQALKDADIEPEDIDEVILVGGMTRMPKIRSVVKDLFGKSPNSSVNPDETVALGAAIQGGILSGEIKNVLLLDVTPLTLGIETFGGAFSPLIPRNTTVPVKKTEIFSTGVDGQAGVDIKVFQGERGLVRNNKLIGDLKLTGITPLPKGIPQIYVTFDIDADGIINVSAAEKSSGKQQSITVIPNSGLSEEEIAKLIEEANANRAQDNLIRQRLELISKADIMISDTENLFKRYEKLISSEKEYSNIVEDIKALRQAIKNFKANENDMSIDVNGIKKATDALQGRALKLFQSATKNQQNQGK
By Km is commonly meant the concentration of substrate that gives half-maximal velocity. Regarding B2, in data set [4], the Michaelis-Menten constant (Km) came out at 25 µM.

B3: HscA (Escherichia coli K-12) (protein)
chain: MALLQISEPGLSAAPHQRRLAAGIDLGTTNSLVATVRSGQAETLADHEGRHLLPSVVHYQQQGHSVGYDARTNAALDTANTISSVKRLMGRSLADIQQRYPHLPYQFQASENGLPMIETAAGLLNPVRVSADILKALAARATEALAGELDGVVITVPAYFDDAQRQGTKDAARLAGLHVLRLLNEPTAAAIAYGLDSGQEGVIAVYDLGGGTFDISILRLSRGVFEVLATGGDSALGGDDFDHLLADYIREQAGIPDRSDNRVQRELLDAAIAAKIALSDADSVTVNVAGWQGEISREQFNELIAPLVKRTLLACRRALKDAGVEADEVLEVVMVGGSTRVPLVRERVGEFFGRPPLTSIDPDKVVAIGAAIQADILVGNKPDSEMLLLDVIPLSLGLETMGGLVEKVIPRNTTIPVARAQDFTTFKDGQTAMSIHVMQGERELVQDCRSLARFALRGIPALPAGGAHIRVTFQVDADGLLSVTAMEKSTGVEASIQVKPSYGLTDSEIASMIKDSMSYAEQDVKARMLAEQKVEAARVLESLHGALAADAALLSAAERQVIDDAAAHLSEVAQGDDVDAIEQAIKNVDKQTQDFAARRMDQSVRRALKGHSVDEV
Take B3: the Km in “purified protein” was determined as 28 µM.
